# Laboratory results from patent US10774132B2, “Ultralong complementarity determining regions and uses thereof” (THE SCRIPPS RESEARCH INSTITUTE, priority 2012, dated 2020).
# B1: H12 (protein, listed as Bos taurus)
# chain: CVIVHQKTTQQSSCPAGFRDCVACTPGPESCCRSGCDGARRRVGLRYFFDSTSPITTYTYEHHIDAW
# modifications: H12
# B2: BLV1H12-IL8: human IL-8 (amino acids 26-99) replacing the knob domain of BLV1H12 CDR3H, SEQ ID NO: 38 (antibody)
# heavy: QVQLRESGPSLVKPSQTLSLTCTASGFSLSDKAVGWVRQAPGKALEWLGSIDTGGNTGYNPGLKSRLSITKDNSKSQVSLSVSSVTTEDSATYYCTSVHQETKKYQSPRSAKELRCQCIKTYSKPFHPKFIKELRVIESGPHCANTEIIVKLSDGRELCLDPKENWVQRVVEKFLKRAENSGSGSYTYNYEWHVDVWGQGLLVTV
# B3: bGCSF: bovine G-CSF (protein, listed as Bos taurus)
# chain: TPLGPARSLPQSFLLKCLEQVRKIQADGAELQERLCAAHKLCHPEELMLLRHSLGIPQAPLSSCSSQSLQLTSCLNQLHGGLFLYQGLLQALAGISPELAPTLDTLQLDVTDFATNIWLQMEDLGAAPAVQPTQGAMPTFTSAFQRRAGGVLVASQLHRFLELAYRGLRYLAEP
# modifications: bGCSF
# notes: bovine G-CSF
# B4: hGCSF: human G-CSF (protein, UniProt P09919 31-207, looked up)
# Granulocyte …: TPLGPASSLPQSFLLKCLEQVRKIQGDGAALQEKLVSECATYKLCHPEELVLLGHSLGIPWAPLSSCPSQALQLAGCLSQLHSGLFLYQGLLQALEGISPELGPTLDTLQLDVADFATTIWQQMEELGMAPALQPTQGAMPAFASAFQRRAGGVLVASHLQSFLEVSYRVLRHLAQP
# Experiments:
# [1] = system: NS2-3 non-structural proteins of BVDV; experiment: Immunocytometric analysis of HEK 293A cells transfected with BVDV antigens; assay type: binding, bovine viral diarrhea virus; details: 10 μg/ml antibody
# Experimental: (§1) Additionally, binding of the chimeric recombinant antibodies to BVDV antigens was evaluated by immunocytometric analysis of transfected human embryonic kidney (HEK) 293A cells (Invitrogen), as previously described (see, e.g., Njongmeta et al. (2012) Vaccine 30:1624-1635). Briefly, HEK 293A monolayers grown in 6-well tissue culture plates were transfected with 2 µg/well of plasmid (pCDNA3.3, Invitrogen) encoding BVDV antigens (N^pro, E2, or non-structural proteins NS2-3) using Lipofectamine 2000 reagent (Invitrogen), and incubated for 48 hr at 37° C. with 5% CO2. The monolayers were fixed with ice-cold 100% methanol for 10 minutes, rinsed with PBS, and after blocking for 1 hr with PBS containing 5% fetal bovine serum (blocking buffer), the monolayers were incubated at room temperature for 1 hr with 10 μg/ml of a mouse anti-FLAG M2-alkaline phosphatase (AP)-conjugate (Sigma) in blocking buffer or 10 μg/ml of the chimeric recombinant antibodies (H12 or B8). […] Following washes in blocking buffer, the AP activity in all the wells was detected using Fast Red AS-MX substrate (Sigma). […]
# [2] = system: untransfected HEK293A cells; experiment: Immunocytometric analysis, untransfected HEK293A cells; assay type: binding, human; details: 10 μg/ml antibody
# Experimental: as §1
# Parental U2OS = experiment: Flow cytometry binding to parental U2OS cells; details: cell culture supernatant
# Experimental: (§2) Briefly, a cell line expressing functionally validated CXCR1 derived from U2OS cells was obtained from DiscoveRx and cultured per manufacturer's instructions (Cat #93-0226C3, DiscoveRx Corporation, Freemont, Calif.). The parental cell line U2OS was obtained from ATCC and cultured under the same conditions as the CXCR1 cells. Cell culture supernatants from Example 2 above were then tested for binding to cells by flow cytometry. The adherent U2OS or CXCR1-U2OS cells were dissociated with Accutase (Innovative Cell Technologies, Inc., San Diego, Calif.), neutralized with an equal volume of media containing 10% serum, centrifuged at 1000 g, and resuspended in PBS with 2% BSA. Next, cells were dispensed into microtiter plates to achieve between 30,000 to 300,000 cells per well, centrifuged again, and resuspended in cell culture supernatant containing expressed IgG, or a dilution of IgG-containing cell culture supernatant. A fluorescent-conjugated anti-Human Fc antibody was used to detect binding of the expressed BLV1H12-IL8 fusion proteins to cells.
# CXCR1 = target: T1, CXCR1 (Homo sapiens, UniProt P25024); experiment: Flow cytometry binding to CXCR1-U2OS cells
# T1 construct: host or cells: U2OS
# T1 sequence (P25024 1-350): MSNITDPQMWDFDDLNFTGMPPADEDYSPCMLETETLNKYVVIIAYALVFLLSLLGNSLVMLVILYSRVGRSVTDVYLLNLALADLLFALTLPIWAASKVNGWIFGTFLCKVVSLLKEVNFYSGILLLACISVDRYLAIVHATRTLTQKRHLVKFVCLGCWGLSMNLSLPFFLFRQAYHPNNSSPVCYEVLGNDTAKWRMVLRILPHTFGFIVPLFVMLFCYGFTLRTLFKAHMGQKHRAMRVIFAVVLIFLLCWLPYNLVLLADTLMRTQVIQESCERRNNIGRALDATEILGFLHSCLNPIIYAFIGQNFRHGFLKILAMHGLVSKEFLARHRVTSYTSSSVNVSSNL
# Experimental: as §2
# Mouse NFS-60 cells = experiment: Proliferation assay on mouse NFS-60 cells (AlamarBlue); assay type: cell-based; details: 72 hours
# Experimental: Mouse NFS-60 cells were obtained from American Type Culture Collection (ATCC), VA, and cultured in RPMI-1640 medium supplemented with 10% fetal bovine serum (FBS), 0.05 mM 2-mercapoethanol and 62 ng/ml human macrophage colony stimulating factor (M-CSF). For proliferation assay, mouse NFS-60 cells were washed three times with RPMI-1640 medium and resuspended in RPMI-1640 medium with 10% FBS and 0.05 mM 2-mercapoethanol at a density of 1.5×10^5 cells/ml. In 96-well plates, 100 μl of cell suspension was added into each well, followed by the addition of varied concentrations of bGCSF, BLV1H12 antibody, and the immunoglobulin constructs described herein, Equal volume of PBS buffer was added into the control wells. The plates were incubated at 37° C. in a 5% CO2 incubator for 72 hours. Cells were then treated with AlamarBlue (Invitrogen) ( 1/10 volume of cell suspension) for 4 hours at 37° C. Fluorescence at 595 nm for each well was read to indicate the cell viability.
# mice neutrophils = experiment: Neutrophil counts in mice, 10th day after injection; assay type: in vivo; details: blood stained and counted at the 10th day post-injection
# Experimental: On the 10th day after injection of BLV1H12-bGCSF fusion antibodies into mice for PK study, blood samples were drawn from the mice and stained using the Diff Quick Staining Kit (Thermo Fisher Scientific, IL). Neutrophils and white blood cells were counted under microscope and the percentages of neutrophils were analyzed. FIGS. 12A-12B and Table 12 show proliferative activities of BLV1H12-bGCSF fusion antibodies on mice neutrophils that are blood stained and counted at the 10th day post-injection.
# [3] = Pharmacokinetics in mice (ELISA of blood samples); assay type: in vivo; details: 70 μg injected, BALB/c mice
# Experimental: For PK study in mice, 70 μg of the immunoglobulin constructs described herein were injected into 3 BALB/c mice per group. Blood samples were drawn from time 0 to 14 days with extended intervals and analyzed by ELISA using anti-human IgG Fc antibody with horseradish peroxidase (HRP) labeled (KPL) and anti-6×His antibody (“6×His” disclosed as SEQ ID NO: 511) with HRP labeled (Clontech). Data were normalized by taking maximal concentration at the first time point (30 min).
# Human mPB CD34+ cells = experiment: Proliferative activity on human granulocyte progenitors (flow cytometry); assay type: cell-based; details: 7 days, flow cytometry
# Experimental: Human mPB CD34^+ cells were purchased from AllCells. Cells were resuspended in HSC expansion medium (StemSpan SFEM, StemCell Technologies) supplemented with 1× antibiotics and the following recombinant human cytokines: thrombopoietin, IL6, Flt3 ligand, and stem cell factor (100 ng/mL, R & D Systems), then plated in 96-well plates (1000 cells per well), with varied concentrations of BLV1H12-bGCSF fusion antibodies. Cells were cultured for 7 days at 37° C. in a 5% CO2 incubator, then analyzed by flow cytometry to measure cell number and expression of CD45ra and CD41. Cells were stained in staining medium (HBSS supplemented with 2% FBS and 2 mM EDTA) at 4° C. for 1 h with PECy7 anti-CD45ra and eFluor 450 anti-CD41 (eBiosciences), then washed with staining medium and analyzed. Multicolor analysis for cell phenotyping was performed on a LSR II flow cytometer (Becton Dickinson). FIGS. 10A-10E and Tables 9-10 show the human granulocyte progenitor cell proliferative activities of the Ab-GCSF fusion antibodies.
molecule,measurement,setting,value
B1,binding to HEK293A cells transfected with NS2-3 of BVDV,[1],strongly binds
same,binding to untransfected cells,[2],weakly bound
B2,Median Arbitrary Fluorescence Units (IgG binding),Parental U2OS,76 AFU
same,specificity (ratio of median fluorescence of CXCR1-U2OS cells versus U2OS parental cells),CXCR1,has specificity for CXCR1
same,Median Arbitrary Fluorescence Units (IgG binding),"CXCR1; CXCR1-U2OS cells, cell culture supernatant, flow cytometry",707 AFU
B3,"F.I. (fluorescence at 595 nm, AlamarBlue, cell viability)",Mouse NFS-60 cells; 0.09145 ng/mL,1214
same,"F.I. (fluorescence at 595 nm, AlamarBlue, cell viability)",Mouse NFS-60 cells; 0.27435 ng/mL,1360.925
same,"F.I. (fluorescence at 595 nm, AlamarBlue, cell viability)",Mouse NFS-60 cells; 0.82305 ng/mL,1761
same,"F.I. (fluorescence at 595 nm, AlamarBlue, cell viability)",Mouse NFS-60 cells; 2.46914 ng/mL,2101
same,"F.I. (fluorescence at 595 nm, AlamarBlue, cell viability)",Mouse NFS-60 cells; 7.40741 ng/mL,2405
same,"F.I. (fluorescence at 595 nm, AlamarBlue, cell viability)",Mouse NFS-60 cells; 22.22222 ng/mL,2646
same,"F.I. (fluorescence at 595 nm, AlamarBlue, cell viability)",Mouse NFS-60 cells; 66.66667 ng/mL,2812.098
same,"F.I. (fluorescence at 595 nm, AlamarBlue, cell viability)",Mouse NFS-60 cells; 200 ng/mL,3087.144
same,Percentage of Neutrophil,mice neutrophils,16.48
same,"Percentage (blood level normalized to first time point, 30 min)",[3]; 0.5 hour,100.00%
same,"Percentage (blood level normalized to first time point, 30 min)",[3]; 1 hour,79.52%
same,"Percentage (blood level normalized to first time point, 30 min)",[3]; 3 hour,56.81%
same,"Percentage (blood level normalized to first time point, 30 min)",[3]; 6 hour,14.94%
same,"Percentage (blood level normalized to first time point, 30 min)",[3]; 24 hour,4.08%
same,"Percentage (blood level normalized to first time point, 30 min)",[3]; 48 hour,0.00%
same,"Percentage (blood level normalized to first time point, 30 min)",[3]; 72 hour,0.00%
same,Number of CD45RA-CD41-,Human mPB CD34+ cells; 0.55886 ng/mL,7354
same,Number of CD45RA-CD41-,Human mPB CD34+ cells; 1.67657 ng/mL,9776
same,Number of CD45RA-CD41-,Human mPB CD34+ cells; 5.02972 ng/mL,12700
same,Number of CD45RA-CD41-,Human mPB CD34+ cells; 15.08916 ng/mL,13200
same,Number of CD45RA-CD41-,Human mPB CD34+ cells; 45.26749 ng/mL,13700
same,Number of CD45RA-CD41-,Human mPB CD34+ cells; 135.80247 ng/mL,13300
same,Number of CD45RA-CD41-,Human mPB CD34+ cells; 407.40741 ng/mL,13700
same,Number of CD45RA-CD41-,Human mPB CD34+ cells; 1222.22222 ng/mL,14100
same,Number of CD45RA-CD41-,Human mPB CD34+ cells; 3666.66667 ng/mL,13100
same,Number of CD45RA-CD41-,Human mPB CD34+ cells; 11000 ng/mL,13800
B4,"F.I. (fluorescence at 595 nm, AlamarBlue, cell viability)",Mouse NFS-60 cells; 0.09145 ng/mL,1266.554
same,"F.I. (fluorescence at 595 nm, AlamarBlue, cell viability)",Mouse NFS-60 cells; 0.27435 ng/mL,1478.287
same,"F.I. (fluorescence at 595 nm, AlamarBlue, cell viability)",Mouse NFS-60 cells; 0.82305 ng/mL,1752.216
same,"F.I. (fluorescence at 595 nm, AlamarBlue, cell viability)",Mouse NFS-60 cells; 2.46914 ng/mL,2224.028
same,"F.I. (fluorescence at 595 nm, AlamarBlue, cell viability)",Mouse NFS-60 cells; 7.40741 ng/mL,2587.222
same,"F.I. (fluorescence at 595 nm, AlamarBlue, cell viability)",Mouse NFS-60 cells; 22.22222 ng/mL,2751.249
same,"F.I. (fluorescence at 595 nm, AlamarBlue, cell viability)",Mouse NFS-60 cells; 66.66667 ng/mL,2815.37
same,"F.I. (fluorescence at 595 nm, AlamarBlue, cell viability)",Mouse NFS-60 cells; 200 ng/mL,2948.509
same,Number of CD45RA-CD41-,Human mPB CD34+ cells; 4.11523 ng/mL,5900
